These results are taken from patent US20080187530A1.

This assay has as its target formyl peptide receptor-like 1 (FPRL1) (human) (UniProt P25090). In words: cell-based or functional assay.
Sequence of UniProt P25090 (P25090 whole entry): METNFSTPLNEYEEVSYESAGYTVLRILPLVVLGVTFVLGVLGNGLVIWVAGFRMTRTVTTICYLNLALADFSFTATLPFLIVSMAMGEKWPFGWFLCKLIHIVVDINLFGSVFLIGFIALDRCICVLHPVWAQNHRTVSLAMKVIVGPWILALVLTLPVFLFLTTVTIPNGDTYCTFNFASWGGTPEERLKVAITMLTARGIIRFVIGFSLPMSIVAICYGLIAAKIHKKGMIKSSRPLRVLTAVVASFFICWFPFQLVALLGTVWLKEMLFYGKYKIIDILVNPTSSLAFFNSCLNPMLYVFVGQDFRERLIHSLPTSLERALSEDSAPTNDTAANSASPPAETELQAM

Turning to “LL-37 peptide (from UniProt P49913 134-170)”, the decrease in proliferation of HaCaT cells treated with LL-37 after pretreatment with pertussis toxin turned out to be 50%.
